In US20190270826A1 (Janssen / Centocor, published 2019):
Where a chain is given by its changes, count along the chain named.

B1: IAPB57 (antibody, human IgG4 S228P, kappa, F234A L235A)
heavy: not shown
light: DIQLTQSPSFLSASVGDRVTITCRASQGISSYLAWYQQKPGKAPKLLIYAASTLQSGVPSRFSGSGSGTEFTLTISSLQPEDFATYYCQQVNSYPLTFGGGTKVEIKRTVAAPSVFIFPPSDEQLKSGTASVVCLLNNFYPREAKVQWKVDNALQSGNSQESVTEQDSKDSTYSLSSTLTLSKADYEKHKVYACEVTHQGLSSPVTKSFNRGEC
notes: IgG4-PAA; whole chains
B2: CD3B219 - CD3B219 Parental, IgG4 PAA (antibody)
heavy chain: EVQLVESGGGLVQPGGSLRLSCAASGFTFNTYAMNWVRQAPGKGLEWVARIRSKYNNYATYYAASVKGRFTISRDDSKNSLYLQMNSLKTEDTAVYYCARHGNFGNSYVSWFAYWGQGTLVTVSSASTKGPSVFPLAPCSRSTSESTAALGCLVKDYFPEPVTVSWNSGALTSGVHTFPAVLQSSGLYSLSSVVTVPSSSLGTKTYTCNVDHKPSNTKVDKRVESKYGPPCPPCPAPEAAGGPSVFLFPPKPKDTLMISRTPEVTCVVVDVSQEDPEVQFNWYVDGVEVHNAKTKPREEQFNSTYRVVSVLTVLHQDWLNGKEYKCKVSNKGLPSSIEKTISKAKGQPREPQVYTLPPSQEEMTKNQVSLTCLVKGFYPSDIAVEWESNGQPENNYKTTPPVLDSDGSFLLYSKLTVDKSRWQEGNVFSCSVMHEALHNHYTQKSLSLSLGK
light chain: QTVVTQEPSLTVSPGGTVTLTCRSSTGAVTTSNYANWVQQKPGQAPRGLIGGTNKRAPGTPARFSGSLLGGKAALTLSGVQPEDEAEYYCALWYSNLWVFGGGTKLTVLGQPKAAPSVTLFPPSSEELQANKATLVCLISDFYPGAVTVAWKADSSPVKAGVETTTPSKQSNNKYAASSYLSLTPEQWKSHRSYSCQVTHEGSTVEKTVAPTECS
B3: IAPB23 (antibody, human IgG4 S228P, kappa, F234A L235A, V domains shown)
VH: EVQLLESGGGLVQPGGSLRLSCAASGFTFSNYWMNWVRQAPGKGLEWVSAIRYDGGSKYYADSVKGRFTISRDNSKNTLYLQMNSLRAEDTAVYYCAKDAYPPYSFDYWGQGTLVTVSS
VL: EIVLTQSPATLSLSPGERATLSCRASQSVSSYLAWYQQKPGQAPRLLIYDASNRATGIPARFSGSGSGTDFTLTISSLEPEDFAVYYCQQRSNWPLTFGQGTKVEIKR
notes: IgG4-PAA; whole chains
B4: IAPB03 (antibody, human IgG4 S228P, kappa, F234A L235A, V domains shown)
VH: QVQLVQSGAEVKKPGSSVKVSCKASGGTFSSYAISWVRQAPGQGLEWMGGISAIFGTANYAQKFQGRVTITADESTSTAYMELSSLRSEDTAVYYCARGNSFHALWDYAFDYWGQGTLVTVSS
VL: not shown
notes: IgG4-PAA; the entries called VH/VL are whole chains; also called IAPB3
B5: IAPB09 (antibody, human IgG4 S228P, kappa, F234A L235A, V domains shown)
VH: QVQLVQSGAEVKKPGSSVKVSCKASGGTFSSYAISWVRQAPGQGLEWMGWISPIFGTANYAQKFQGRVTITADESTSTAYMELSSLRSEDTAVYYCARRYDNFARSGDLDYWGQGTLVTVSS
VL: not shown
notes: IgG4-PAA; whole chains; also called IAPB9
B6: IAPB47 (antibody, human IgG4 S228P, kappa, F234A L235A, V domains shown)
VH: EVQLVQSGAEVKKPGESLKISCKGSGYSFTSYWIGWVRQMPGKGLEWMGIIYPSDSYTRYSPSFQGQVTISADKSISTAYLQWSSLKASDTAMYYCARRNSAENYADLDYWGQGTLVTVSS
VL: EIVLTQSPGTLSLSPGERATLSCRASQSISNDLNWYQQKPGKAPKLLIYYASSLQSGVPSRFSGSGSGTDFTLTINSLQPEDFATYYCQQSFTAPLTFGQGTKVEIKR
notes: IgG4-PAA; whole chains
B7: IAPB17 (antibody, human IgG4 S228P, kappa, F234A L235A, V domains shown)
VH: QVQLVQSGAEVKKPGSSVKVSCKASGGTFSSYAISWVRQAPGQGLEWMGGIIPIFGNANYAQKFQGRVTITADESTSTAYMELSSLRSEDTAVYYCARTIIYLDYVHILDYWGQGTLVTVSS
VL: not shown
notes: IgG4-PAA; whole chains

What follows are binders tested against T1, human FcγRI (human, UniProt P12314 16-292, limits assumed) (assay: AlphaScreen competition, human FcγRI (n=1); displaced: biotinylated control mAb B21M hIgG1 AlaAla; pH 7.2).
T1 construct: GST-tagged, on glutathione acceptor beads; also called FcγRT [sic]
Excerpt: (§1) Measurements were made using an AlphaScreen™ assay (Amplified Luminescent Proximity Homogeneous Assay (ALPHA), PerkinElmer, Wellesley, Mass.), a bead-based luminescent proximity assay. Laser excitation of a donor bead excites oxygen, which if sufficiently close to the acceptor bead generates a cascade of chemiluminescent events, ultimately leading to fluorescence emission at 520-620 nm.

Row | Binder | IC50 (read off the curve) [nM]
1 | B1 | ~100
2 | B2 | ~60

What follows are binders tested against T2, recombinant cyno IL1RAP ECD (cynomolgus monkey, UniProt P59822 21-367 (rhesus entry)) (assay: recombinant protein).
T2 construct: also called rcynoIL1RAP
T2 sequence: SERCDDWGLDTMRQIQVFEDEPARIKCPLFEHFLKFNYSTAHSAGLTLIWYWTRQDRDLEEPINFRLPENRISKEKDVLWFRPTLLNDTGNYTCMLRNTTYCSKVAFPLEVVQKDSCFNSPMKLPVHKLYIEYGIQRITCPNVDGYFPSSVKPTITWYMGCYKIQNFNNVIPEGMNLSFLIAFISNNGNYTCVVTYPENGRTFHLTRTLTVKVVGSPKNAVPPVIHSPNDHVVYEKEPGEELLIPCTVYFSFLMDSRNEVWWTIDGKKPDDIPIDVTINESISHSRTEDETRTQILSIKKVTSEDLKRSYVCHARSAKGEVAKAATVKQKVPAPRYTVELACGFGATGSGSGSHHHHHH

Row | Binder | binding result
3 | B1 | binds
4 | B3 | binds
5 | B4 | binds
6 | B5 | binds
7 | B6 | binds
8 | B7 | binds

Each binder was assayed against T3, human FcRn (human, UniProt P55899 24-297; P61769 21-119, limits assumed) (assay: AlphaScreen competition, human FcRn (n=1); displaced: biotinylated control mAb B21M WT IgG1 (m27); pH 6.0).
T3 construct: GST-tagged
Excerpt: as §1

Row | Binder | IC50 (read off the curve) [nM]
9 | B1 | ~200
10 | B2 | ~200

What follows are binders tested against T4, recombinant human IL1RAP ECD (human, UniProt Q9NPH3 21-367) (assay: SPR (ProteOn)).
T4 construct: His-tagged; also called hIL1RAP-ECD; rhuIL1RAP
T4 sequence: T2 sequence with F183L, P273T, T326K
Method: The rates of IL1RAP ECD association and dissociation were measured for each variant. The biosensor surface was prepared by covalently coupling Goat anti-Human IgG (Fc) to the surface of a GLC chip (BioRad) using the manufacturer instructions for amine-coupling chemistry. […] The RU immobilized also included a goat anti-mouse Fc antibody that was added to capture other antibodies not included in the ones reported here. Since the mixture was 1:1 about 50% of these RU immobilized are expected to be goat anti-human Fc. The kinetic experiments were performed at 25° C. in running buffer (PBS pH 7.4, 0.005% P20, 3 mM EDTA). […] (1:3) serial dilutions of human IL1RAP ECD, starting at 400 nM were prepared in running buffer. […] The reference spots (Goat anti-Human IgG (Fc)-modified surface) containing no candidate captured were used as a reference surface. Capture of mAb was followed by a 3 minute injection (association phase) of antigen at 40 μL/min, followed by 10 minutes of buffer flow (dissociation phase). […] Data was processed on the instrument software. Double reference subtraction of the data was performed by subtracting the curves generated by buffer injection from the reference-subtracted curves for analyte injections. Kinetic analysis of the data was performed using 1:1 Langmuir binding model with group fit.

Row | Binder | Kd [nM] | koff [s⁻¹] | kon [M⁻¹ s⁻¹]
11 | B3 | 4.7 | 0.00149 | 317000
12 | B4 | 2.64 | 0.000357 | 135000
13 | B5 | 6.59 | 0.00379 | 574000
14 | B6 | 1.24 | 0.000811 | 653000
15 | B7 | 8.51 | 0.00719 | 844000

The binders below were run against T5, human FcγRIIb (human, UniProt P31994 43-217, limits assumed) (assay: AlphaScreen competition, human FcγRIIb (n=1); displaced: biotinylated control mAb B21M hIgG1 WT; pH 7.2).
T5 construct: GST-tagged
T5 sequence (looked up): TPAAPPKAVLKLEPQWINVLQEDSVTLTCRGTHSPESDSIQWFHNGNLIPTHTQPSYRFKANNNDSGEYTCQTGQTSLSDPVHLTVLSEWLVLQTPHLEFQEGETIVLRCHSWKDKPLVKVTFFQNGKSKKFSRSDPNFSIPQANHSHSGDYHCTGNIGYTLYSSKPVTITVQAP
Excerpt: as §1

Row | Binder | binding result
16 | B1 | binds
17 | B2 | binds

The binders below were run against T4, recombinant human IL1RAP ECD (assay: SPR, summary).

Row | Binder | Kd [nM]
18 | B1 | 0.16
19 | B3 | 4.7
20 | B4 | 2.64
21 | B5 | 6.59
22 | B6 | 1.24
23 | B7 | 8.51

What follows are binders tested against T6, mouse IL1RAP ECD displayed on HEK-293F cells (pDisplay) (mouse, UniProt Q61730 21-367) (assay: HEK-293F cells (MSD)).
T6 sequence: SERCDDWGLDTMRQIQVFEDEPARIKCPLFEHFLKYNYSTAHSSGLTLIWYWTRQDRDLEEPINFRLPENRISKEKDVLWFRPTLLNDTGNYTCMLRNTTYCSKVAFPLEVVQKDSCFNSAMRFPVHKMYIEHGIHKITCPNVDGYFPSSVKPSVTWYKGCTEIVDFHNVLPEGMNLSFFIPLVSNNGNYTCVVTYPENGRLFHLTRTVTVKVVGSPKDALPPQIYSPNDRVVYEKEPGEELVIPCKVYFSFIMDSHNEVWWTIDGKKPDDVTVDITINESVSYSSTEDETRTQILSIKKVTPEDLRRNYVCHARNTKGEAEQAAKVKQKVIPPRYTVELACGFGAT

Row | Binder | binding result
24 | B5 | binds
25 | B6 | binds
26 | B7 | binds

These binders were tested against T7, rat IL1RAP ECD displayed on HEK-293F cells (pDisplay) (rat, UniProt Q63621 21-367) (assay: HEK-293F cells (MSD)).
T7 sequence: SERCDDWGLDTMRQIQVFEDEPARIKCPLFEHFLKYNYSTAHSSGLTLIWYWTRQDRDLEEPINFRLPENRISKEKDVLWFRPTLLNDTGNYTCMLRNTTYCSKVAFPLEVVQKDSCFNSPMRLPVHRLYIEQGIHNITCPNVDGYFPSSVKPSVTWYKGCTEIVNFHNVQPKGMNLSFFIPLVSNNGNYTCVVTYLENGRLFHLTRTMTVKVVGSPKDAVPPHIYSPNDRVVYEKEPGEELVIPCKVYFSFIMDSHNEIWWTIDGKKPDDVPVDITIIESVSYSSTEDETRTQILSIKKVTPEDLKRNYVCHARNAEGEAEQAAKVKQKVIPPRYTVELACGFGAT

Row | Binder | binding result
27 | B5 | binds
28 | B6 | binds
29 | B7 | binds

These binders were tested against T8, cyno IL1RAP ECD displayed on HEK-293F cells (pDisplay) (cynomolgus monkey, UniProt P59822 21-367 (rhesus entry)) (assay: HEK-293F cells (MSD)).
T8 sequence: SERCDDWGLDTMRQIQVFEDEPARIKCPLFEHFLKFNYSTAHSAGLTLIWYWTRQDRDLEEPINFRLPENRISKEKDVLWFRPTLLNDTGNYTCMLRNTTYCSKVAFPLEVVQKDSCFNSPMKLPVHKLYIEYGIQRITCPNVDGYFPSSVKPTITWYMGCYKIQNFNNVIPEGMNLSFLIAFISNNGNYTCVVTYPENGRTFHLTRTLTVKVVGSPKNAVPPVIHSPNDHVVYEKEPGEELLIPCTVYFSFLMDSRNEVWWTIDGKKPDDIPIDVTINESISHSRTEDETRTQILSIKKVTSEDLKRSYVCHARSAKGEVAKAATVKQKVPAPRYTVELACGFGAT

Row | Binder | binding result
30 | B1 | binds
31 | B3 | binds
32 | B4 | binds
33 | B5 | binds
34 | B6 | binds
35 | B7 | binds
